{
  "source": "patent US5891661A",
  "about": "“Low temperature assay for active HCMV protease in dimeric form” (Merck & Co., Inc., priority 1997, dated 1999)",
  "key": {"HCMV protease [1]": {"test_system": "HCMV protease", "experiment": "Kinetic assays of monomeric form", "type": "biochemical, human cytomegalovirus", "settings": "ambient or higher temperatures", "experimental": "For this reason, the activity of this protease has been erroneously believed to be very low. […] This physiochemical phenomenon is governed by thermodynamic principles. Due to the high activation energy required for dissociation, the HCMV protease can be \"frozen\" in its active, dimeric form at about 0° C., thus enabling sensitive detection of inhibitors of this enzyme. […] The existence of the HCMV protease has been reported, e.g., see Pinko, et al., J. Biol. Chem. 270, 23634 (1995). Assays for the catalytic activity of this enzyme have been described, albeit the reported kinetic parameters were substantially lower than those measured by applicants. […] This approach affords an assay for the activity of the protease at low concentration (≤20 nM), thus permitting detection of weak inhibitors or strong inhibitors at low concentration."}, "HCMV protease [2]": {"test_system": "HCMV protease", "experiment": "Activity assay of eluted size exclusion peaks at 0° C.", "type": "biochemical, human cytomegalovirus", "experimental": "Assignment of the early (55 kDa) and late (33 kDa) elution peaks in FIG. 1 as dimer and monomer, respectively, allows the estimation of a Kd for dimerization. […] The maximum fraction of dimeric protease extrapolated from FIG. 2 is 0.92. In separate experiments using protease at a loading concentration of 100 mM, the maximum fraction of dimeric protease is more than or equal to 0.95. […] The same analysis applied to enzyme pre-equilibrated in 10% glycerol produces a […]"}, "wild-type HCMV protease": {"test_system": "wild-type HCMV protease", "experiment": "Stability of purified wild-type enzyme at pH 5.5 and return of activity at pH 7.5", "type": "physicochemical, human cytomegalovirus", "experimental": "The wild-type HCMV protease was purified similarly. To avoid self-proteolysis, the protein obtained from the first anion exchange step was folded and dialyzed as above, but in the absence of glycerol. The sample was then acidified to pH 5.5 with MES, applied to a cation exchange column in 50 mM MES, 1 mM EDTA, 1 mM DTT, pH 5.5, and eluted with a sodium chloride gradient. […] Enzyme preparations were greater than 95% pure by SDS PAGE and gave the expected amino acid analysis. The N-terminal 5 residues of both enzymes were MTMDE, showing retention but defonnylation of the initial N-formyl methionine. Electrospray mass spectrometry indicated a single species within 10 a.m.u. of the expected mass. The concentrations of stock enzyme solutions were determined by quantitative amino acid analysis."}, "HCMV protease [3]": {"test_system": "HCMV protease", "experiment": "Dependence of protease specific activity on temperature, enzyme and glycerol concentrations (dilution)", "type": "biochemical, human cytomegalovirus", "experimental": "Dependence of Protease Specific Activity on Enzyme and Glycerol Concentrations\nDilution of a concentrated solution of HCMV protease produces a time-dependent change in activity to a new, lower level. The rate and extent of the change in protease activity is a function of temperature. […] At temperatures above 20° C., the change in activity (t1/2 ≤30 min) upon enzyme dilution is such that an accurate assessment of activity requires a rapid assay (ca. 1 min).\nThe specific activity of the HCMV protease increases at higher enzyme and glycerol concentrations. […] It can be shifted back to the higher activity seen for 20% glycerol by addition of an equal volume of buffer containing 30% glycerol to produce a solution containing 20% glycerol, followed by further incubation. Thus, the dependence of HCMV protease activity on enzyme and glycerol concentrations is reversible.\nThe dependence of HCMV protease activity on enzyme concentration can be interpreted in terms of a monomer-dimer equilibrium wherein only the dimeric form of the enzyme is active."}, "HCMV protease [4]": {"test_system": "HCMV protease", "experiment": "Analytical centrifugation, velocity sedimentation of HCMV protease", "type": "physicochemical, human cytomegalovirus", "settings": "20 mM (monomer equivalents), 20° C.", "description": "Analytical Centrifugation\nThe quaternary state of the HCMV protease was characterized by sedimentation velocity measurements. […] An approximate solution of the Lamm equation fits directly to the data to obtain the sedimentation coefficient, S20,w, the diffusion coefficient, D20,w, and by use of the Svedberg relation, the molecular weight. For both samples good fits are found for a single sedimenting species. In the absence of glycerol the molecular weight obtained is 29.7 kDa which is close to the molecular weight of a monomeric HCMV protease. […] The increase in S20,w and the decrease D20,w shown in Table 1 are both consistent with the existence of a stable dimeric protease in 20% glycerol.\n^α Samples were loaded at 20 mM (monomer equivalents) and\nsedimentation was conducted at 20° C. Data shown in brackets are\nthe 95% confidence limits."}},
  "data": [
    {"substance": "monomer: late (33 kDa) elution peak of HCMV protease, monomeric form", "values": [
      {"measurement": "activity of monomeric form as gauged by kinetic assays", "setting": "HCMV protease [1]", "result": "inactive"},
      {"measurement": "activity in eluted monomer peak", "setting": "HCMV protease [2]", "result": "no detectable activity"}
    ]},
    {"substance": "dimer: early (55 kDa) elution peak of HCMV protease, dimeric form", "values": [
      {"measurement": "hydrolytic activity in eluted dimer peak", "setting": "HCMV protease [2]", "result": "more than 50 -fold of detectable levels"}
    ]},
    {"substance": "wild-type HCMV protease: recombinant wild-type HCMV protease", "values": [
      {"measurement": "return of activity following dilution", "setting": "wild-type HCMV protease; dilution from pH 5.5 to pH 7.5", "result": "returned to full activity"},
      {"measurement": "stability of wild-type enzyme", "setting": "wild-type HCMV protease; pH 5.5", "result": "stable at pH 5.5"}
    ]},
    {"substance": "HCMV protease: N-terminal 256 amino acid protease domain of HCMV strain AD169, recombinantly expressed in E. coli", "values": [
      {"measurement": "change in protease activity upon dilution", "setting": "HCMV protease [3]; 0° C.", "result": "no significant change is observable for a period of hours"},
      {"measurement": "time for active form of the enzyme to reach equilibrium after dilution", "setting": "HCMV protease [3]; 10% and 20% glycerol samples", "result": "≤ 1.5", "unit": "h"},
      {"measurement": "activity in 10% glycerol compared with 20% glycerol", "setting": "HCMV protease [3]; 10% vs 20% glycerol (v/v)", "result": "lower than that incubated in 20% glycerol"},
      {"measurement": "decrease in protease activity upon dilution", "setting": "HCMV protease [3]; 37° C.", "result": "occurs within minutes"},
      {"measurement": "specific activity as enzyme concentration is lowered", "setting": "HCMV protease [3]; after dilution, incubations of 1.5 hr and 3.5 hr", "result": "tends toward zero as its concentration is lowered"},
      {"measurement": "t1/2 of change in activity upon enzyme dilution", "setting": "HCMV protease [3]; temperatures above 20° C.", "result": "≤ 30", "unit": "min"},
      {"measurement": "diffusion coefficient D20,w", "setting": "HCMV protease [4]; 0% glycerol", "result": 8.34, "unit": "cm^2 10^7"},
      {"measurement": "sedimentation coefficient S20,w", "setting": "HCMV protease [4]; 0% glycerol", "result": 2.78, "unit": "S"},
      {"measurement": "diffusion coefficient D20,w", "setting": "HCMV protease [4]; 20% glycerol (v/v)", "result": 6.57, "unit": "cm^2 10^7"},
      {"measurement": "sedimentation coefficient S20,w", "setting": "HCMV protease [4]; 20% glycerol (v/v)", "result": 3.59, "unit": "S"}
    ]}
  ]
}
